The source of these data is paper PMC4498918.

What all share (assay): EMSA
On the technique in general: A gel shift assay detects complexes by their altered migration in electrophoresis.

Data set [1] has as its system δ2K242A (Streptococcus pyogenes plasmid pSM19035). Particulars: EMSA: 50 mM Tris-HCl pH 7.5, 50 mM NaCl, 10 mM MgCl2 (buffer B; Fig 7 legend says buffer C), with or without 1 mM ATP or ADP, 15 min at 37°C, 0.1 nM DNA; 4 or ….
Data set [2] relates to δ2D60A (Streptococcus pyogenes plasmid pSM19035). Particulars: EMSA: 50 mM Tris-HCl pH 7.5, 50 mM NaCl, 10 mM MgCl2 (buffer B; Fig 7 legend says buffer C), with or without 1 mM ATP or ADP, 15 min at 37°C, 0.1 nM DNA; 4 or ….
For data set [3], the system named is δ2 (ParA-like) (Streptococcus pyogenes plasmid pSM19035). The conditions noted are these: 1 mM ATP, 10 mM Mg2+; KDapp, cooperative; EMSA: 50 mM Tris-HCl pH 7.5, 50 mM NaCl, 10 mM MgCl2 (buffer B; Fig 7 legend says buffer C), with or without 1 mM ATP or ADP, 15 min at 37°C, 0.1 nM DNA; 4 or ….
In data set [4] the test system is δ2D211A (Streptococcus pyogenes plasmid pSM19035). Particulars: EMSA: 50 mM Tris-HCl pH 7.5, 50 mM NaCl, 10 mM MgCl2 (buffer B; Fig 7 legend says buffer C), with or without 1 mM ATP or ADP, 15 min at 37°C, 0.1 nM DNA; 4 or ….

423-bp HindIII-KpnI parS2 DNA showed a binding signal (fold lower binding than wt) in data set [1] of 20. For the same substance, the figures for the binding signal (fold higher affinity than wt) in data set [2] and in data set [4] were 2 and over 6, respectively. The Kd in data set [3] amounted to 140 nM.
